Here are results for six molecules from US20240270846A1 (published 2024).

B1: GLS3000 N28S (Kabat) L chain altered form, one-arm antibody with CE115HA000 (antibody, human IgG1, kappa, L234A L235A, N297A, name in Kabat numbering)
heavy: QVQLVESGGGVVQPGRSLRLSCAASGFTFSNAWMHWVRQAPGKGLEWVAQIKAKSNNYATYYAESVKGRFTISRDDSKNSLYLQMNSLKTEDTAVYYCRYVHYGAYYGVDAWGQGTTVTVSSASTKGPSVFPLAPSSKSTSGGTAALGCLVKDYFPEPVTVSWNSGALTSGVHTFPAVLQSSGLYSLSSVVTVPSSSLGTQTYICNVNHKPSNTKVDKKVEPKSCDKTHTCPPCPAPEAAGGPSVFLFPPKPKDTLMISRTPEVTCVVVDVSHEDPEVKFNWYVDGVEVHNAKTKPREEQYASTYRVVSVLTVLHQDWLNGKEYKCKVSNKALPAPIEKTISKAKGQPREPQVYTLPPSRCELTKNQVSLSCAVKGFYPSDIAVEWESNGQPENNYKTTPPVLDSDGSFFLVSKLTVDKSRWQQGNVFSCSVMHEALHNHYTQKSLSLSPDYKDDDDK
chain: EPKSSDKTHTCPPCPAPELLGGPSVFLFPPKPKDTLMISRTPEVTCVVVDVSHEDPEVKFNWYVDGVEVHNAKTKPREEQYNSTYRVVSVLTVLHQDWLNGKEYKCKVSNKALPAPIEKTISKAKGQPREPQVCTLPPSRDELTKNQVSLWCLVKGFYPSDIAVEWESNGQPENNYKTTPPVLDSDGSFFLYSKLTVDKSRWQQGNVFSCSVMHEALHNRYTQKSLSLSP
light: DIVMTQSPLSLPVTPGEPASISCRSSQSLVHSSRNTYLHWYQQKPGQAPRLLIYKVSNRFSGVPDRFSGSGSGTDFTLKISRVEAEDVGVYYCGQGTQVPYTFGQGTKLEIKRTVAAPSVFIFPPSDEQLKSGTASVVCLLNNFYPREAKVQWKVDNALQSGNSQESVTEQDSKDSTYSLSSTLTLSKADYEKHKVYACEVTHQGLSSPVTKSFNRGEC
notes: one-arm antibody
B2: GLS3000 N28W (Kabat) L chain altered form, one-arm antibody with CE115HA000 (antibody, human IgG1, kappa, L234A L235A, N297A, name in Kabat numbering)
heavy: QVQLVESGGGVVQPGRSLRLSCAASGFTFSNAWMHWVRQAPGKGLEWVAQIKAKSNNYATYYAESVKGRFTISRDDSKNSLYLQMNSLKTEDTAVYYCRYVHYGAYYGVDAWGQGTTVTVSSASTKGPSVFPLAPSSKSTSGGTAALGCLVKDYFPEPVTVSWNSGALTSGVHTFPAVLQSSGLYSLSSVVTVPSSSLGTQTYICNVNHKPSNTKVDKKVEPKSCDKTHTCPPCPAPEAAGGPSVFLFPPKPKDTLMISRTPEVTCVVVDVSHEDPEVKFNWYVDGVEVHNAKTKPREEQYASTYRVVSVLTVLHQDWLNGKEYKCKVSNKALPAPIEKTISKAKGQPREPQVYTLPPSRCELTKNQVSLSCAVKGFYPSDIAVEWESNGQPENNYKTTPPVLDSDGSFFLVSKLTVDKSRWQQGNVFSCSVMHEALHNHYTQKSLSLSPDYKDDDDK
chain: EPKSSDKTHTCPPCPAPELLGGPSVFLFPPKPKDTLMISRTPEVTCVVVDVSHEDPEVKFNWYVDGVEVHNAKTKPREEQYNSTYRVVSVLTVLHQDWLNGKEYKCKVSNKALPAPIEKTISKAKGQPREPQVCTLPPSRDELTKNQVSLWCLVKGFYPSDIAVEWESNGQPENNYKTTPPVLDSDGSFFLYSKLTVDKSRWQQGNVFSCSVMHEALHNRYTQKSLSLSP
light: DIVMTQSPLSLPVTPGEPASISCRSSQSLVHSWRNTYLHWYQQKPGQAPRLLIYKVSNRFSGVPDRFSGSGSGTDFTLKISRVEAEDVGVYYCGQGTQVPYTFGQGTKLEIKRTVAAPSVFIFPPSDEQLKSGTASVVCLLNNFYPREAKVQWKVDNALQSGNSQESVTEQDSKDSTYSLSSTLTLSKADYEKHKVYACEVTHQGLSSPVTKSFNRGEC
notes: one-arm antibody
B3: GLS3000 N30A (Kabat) L chain altered form, one-arm antibody with CE115HA000 (antibody, human IgG1, kappa, L234A L235A, N297A, name in Kabat numbering)
heavy: QVQLVESGGGVVQPGRSLRLSCAASGFTFSNAWMHWVRQAPGKGLEWVAQIKAKSNNYATYYAESVKGRFTISRDDSKNSLYLQMNSLKTEDTAVYYCRYVHYGAYYGVDAWGQGTTVTVSSASTKGPSVFPLAPSSKSTSGGTAALGCLVKDYFPEPVTVSWNSGALTSGVHTFPAVLQSSGLYSLSSVVTVPSSSLGTQTYICNVNHKPSNTKVDKKVEPKSCDKTHTCPPCPAPEAAGGPSVFLFPPKPKDTLMISRTPEVTCVVVDVSHEDPEVKFNWYVDGVEVHNAKTKPREEQYASTYRVVSVLTVLHQDWLNGKEYKCKVSNKALPAPIEKTISKAKGQPREPQVYTLPPSRCELTKNQVSLSCAVKGFYPSDIAVEWESNGQPENNYKTTPPVLDSDGSFFLVSKLTVDKSRWQQGNVFSCSVMHEALHNHYTQKSLSLSPDYKDDDDK
chain: EPKSSDKTHTCPPCPAPELLGGPSVFLFPPKPKDTLMISRTPEVTCVVVDVSHEDPEVKFNWYVDGVEVHNAKTKPREEQYNSTYRVVSVLTVLHQDWLNGKEYKCKVSNKALPAPIEKTISKAKGQPREPQVCTLPPSRDELTKNQVSLWCLVKGFYPSDIAVEWESNGQPENNYKTTPPVLDSDGSFFLYSKLTVDKSRWQQGNVFSCSVMHEALHNRYTQKSLSLSP
light: DIVMTQSPLSLPVTPGEPASISCRSSQSLVHSNRATYLHWYQQKPGQAPRLLIYKVSNRFSGVPDRFSGSGSGTDFTLKISRVEAEDVGVYYCGQGTQVPYTFGQGTKLEIKRTVAAPSVFIFPPSDEQLKSGTASVVCLLNNFYPREAKVQWKVDNALQSGNSQESVTEQDSKDSTYSLSSTLTLSKADYEKHKVYACEVTHQGLSSPVTKSFNRGEC
notes: one-arm antibody
B4: GLS3000 N28V (Kabat) L chain altered form, one-arm antibody with CE115HA000 (antibody, human IgG1, kappa, L234A L235A, N297A, name in Kabat numbering)
heavy: QVQLVESGGGVVQPGRSLRLSCAASGFTFSNAWMHWVRQAPGKGLEWVAQIKAKSNNYATYYAESVKGRFTISRDDSKNSLYLQMNSLKTEDTAVYYCRYVHYGAYYGVDAWGQGTTVTVSSASTKGPSVFPLAPSSKSTSGGTAALGCLVKDYFPEPVTVSWNSGALTSGVHTFPAVLQSSGLYSLSSVVTVPSSSLGTQTYICNVNHKPSNTKVDKKVEPKSCDKTHTCPPCPAPEAAGGPSVFLFPPKPKDTLMISRTPEVTCVVVDVSHEDPEVKFNWYVDGVEVHNAKTKPREEQYASTYRVVSVLTVLHQDWLNGKEYKCKVSNKALPAPIEKTISKAKGQPREPQVYTLPPSRCELTKNQVSLSCAVKGFYPSDIAVEWESNGQPENNYKTTPPVLDSDGSFFLVSKLTVDKSRWQQGNVFSCSVMHEALHNHYTQKSLSLSPDYKDDDDK
chain: EPKSSDKTHTCPPCPAPELLGGPSVFLFPPKPKDTLMISRTPEVTCVVVDVSHEDPEVKFNWYVDGVEVHNAKTKPREEQYNSTYRVVSVLTVLHQDWLNGKEYKCKVSNKALPAPIEKTISKAKGQPREPQVCTLPPSRDELTKNQVSLWCLVKGFYPSDIAVEWESNGQPENNYKTTPPVLDSDGSFFLYSKLTVDKSRWQQGNVFSCSVMHEALHNRYTQKSLSLSP
light: DIVMTQSPLSLPVTPGEPASISCRSSQSLVHSVRNTYLHWYQQKPGQAPRLLIYKVSNRFSGVPDRFSGSGSGTDFTLKISRVEAEDVGVYYCGQGTQVPYTFGQGTKLEIKRTVAAPSVFIFPPSDEQLKSGTASVVCLLNNFYPREAKVQWKVDNALQSGNSQESVTEQDSKDSTYSLSSTLTLSKADYEKHKVYACEVTHQGLSSPVTKSFNRGEC
notes: one-arm antibody
B5: GLS3000 N28T (Kabat) L chain altered form, one-arm antibody with CE115HA000 (antibody, human IgG1, kappa, L234A L235A, N297A, name in Kabat numbering)
heavy: QVQLVESGGGVVQPGRSLRLSCAASGFTFSNAWMHWVRQAPGKGLEWVAQIKAKSNNYATYYAESVKGRFTISRDDSKNSLYLQMNSLKTEDTAVYYCRYVHYGAYYGVDAWGQGTTVTVSSASTKGPSVFPLAPSSKSTSGGTAALGCLVKDYFPEPVTVSWNSGALTSGVHTFPAVLQSSGLYSLSSVVTVPSSSLGTQTYICNVNHKPSNTKVDKKVEPKSCDKTHTCPPCPAPEAAGGPSVFLFPPKPKDTLMISRTPEVTCVVVDVSHEDPEVKFNWYVDGVEVHNAKTKPREEQYASTYRVVSVLTVLHQDWLNGKEYKCKVSNKALPAPIEKTISKAKGQPREPQVYTLPPSRCELTKNQVSLSCAVKGFYPSDIAVEWESNGQPENNYKTTPPVLDSDGSFFLVSKLTVDKSRWQQGNVFSCSVMHEALHNHYTQKSLSLSPDYKDDDDK
chain: EPKSSDKTHTCPPCPAPELLGGPSVFLFPPKPKDTLMISRTPEVTCVVVDVSHEDPEVKFNWYVDGVEVHNAKTKPREEQYNSTYRVVSVLTVLHQDWLNGKEYKCKVSNKALPAPIEKTISKAKGQPREPQVCTLPPSRDELTKNQVSLWCLVKGFYPSDIAVEWESNGQPENNYKTTPPVLDSDGSFFLYSKLTVDKSRWQQGNVFSCSVMHEALHNRYTQKSLSLSP
light: DIVMTQSPLSLPVTPGEPASISCRSSQSLVHSTRNTYLHWYQQKPGQAPRLLIYKVSNRFSGVPDRFSGSGSGTDFTLKISRVEAEDVGVYYCGQGTQVPYTFGQGTKLEIKRTVAAPSVFIFPPSDEQLKSGTASVVCLLNNFYPREAKVQWKVDNALQSGNSQESVTEQDSKDSTYSLSSTLTLSKADYEKHKVYACEVTHQGLSSPVTKSFNRGEC
notes: one-arm antibody
B6: GLS3000 N28Y (Kabat) L chain altered form, one-arm antibody with CE115HA000 (antibody, human IgG1, kappa, L234A L235A, N297A, name in Kabat numbering)
heavy: QVQLVESGGGVVQPGRSLRLSCAASGFTFSNAWMHWVRQAPGKGLEWVAQIKAKSNNYATYYAESVKGRFTISRDDSKNSLYLQMNSLKTEDTAVYYCRYVHYGAYYGVDAWGQGTTVTVSSASTKGPSVFPLAPSSKSTSGGTAALGCLVKDYFPEPVTVSWNSGALTSGVHTFPAVLQSSGLYSLSSVVTVPSSSLGTQTYICNVNHKPSNTKVDKKVEPKSCDKTHTCPPCPAPEAAGGPSVFLFPPKPKDTLMISRTPEVTCVVVDVSHEDPEVKFNWYVDGVEVHNAKTKPREEQYASTYRVVSVLTVLHQDWLNGKEYKCKVSNKALPAPIEKTISKAKGQPREPQVYTLPPSRCELTKNQVSLSCAVKGFYPSDIAVEWESNGQPENNYKTTPPVLDSDGSFFLVSKLTVDKSRWQQGNVFSCSVMHEALHNHYTQKSLSLSPDYKDDDDK
chain: EPKSSDKTHTCPPCPAPELLGGPSVFLFPPKPKDTLMISRTPEVTCVVVDVSHEDPEVKFNWYVDGVEVHNAKTKPREEQYNSTYRVVSVLTVLHQDWLNGKEYKCKVSNKALPAPIEKTISKAKGQPREPQVCTLPPSRDELTKNQVSLWCLVKGFYPSDIAVEWESNGQPENNYKTTPPVLDSDGSFFLYSKLTVDKSRWQQGNVFSCSVMHEALHNRYTQKSLSLSP
light: DIVMTQSPLSLPVTPGEPASISCRSSQSLVHSYRNTYLHWYQQKPGQAPRLLIYKVSNRFSGVPDRFSGSGSGTDFTLKISRVEAEDVGVYYCGQGTQVPYTFGQGTKLEIKRTVAAPSVFIFPPSDEQLKSGTASVVCLLNNFYPREAKVQWKVDNALQSGNSQESVTEQDSKDSTYSLSSTLTLSKADYEKHKVYACEVTHQGLSSPVTKSFNRGEC
notes: one-arm antibody

T1 sequence (P07766 23-126): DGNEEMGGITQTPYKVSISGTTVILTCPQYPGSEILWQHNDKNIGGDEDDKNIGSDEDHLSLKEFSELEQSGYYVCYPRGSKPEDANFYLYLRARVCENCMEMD

The experiment concerns the target T1, CD3 epsilon homodimer protein (UniProt P07766 23-126).
T1 construct: construct not described; homodimer as printed; also called CD3 (CD3 epsilon)
In words: SPR Biacore T200, CD3 epsilon homodimer immobilized; vs unaltered GLS3000.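 Also: antibody variants flowed as analyte over CD3 epsilon homodimer amine-coupled to a CM4 chip, at 25 °C in HBS-EP+ running buffer, fitted with Biacore T200 Evaluation Software.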 A general note: SPR reads the build-up and loss of mass on a sensor chip optically.
B1: the “KD ratio to GLS3000 (Affinity up)” value is 4.3.

Take B2: the “KD ratio to GLS3000 (Affinity up)” value is 3.17.

In the case of B3, the “KD ratio to GLS3000 (Affinity up)” value is 1.16.

For the molecule B4, the “KD ratio to GLS3000 (Affinity up)” value turned out to be 3.73.

Regarding B5, the “KD ratio to GLS3000 (Affinity up)” value stood at 2.67.

For B6, the “KD ratio to GLS3000 (Affinity up)” value was 3.89.
